# Patent publication US20110076248A1 (MYRIAD GENETICS, published 2011)
# Residue numbers refer to the chain shown, from its start. Names and notes keep the numbering of the source.
# T1: activation domain-Tsg101 construct (full-length Tsg101 in GADpN2: SV40NLS-GAL4 (768-881)-Tsg101) (human, UniProt P04386 768-881; Q99816 1-390)
# T1 sequence: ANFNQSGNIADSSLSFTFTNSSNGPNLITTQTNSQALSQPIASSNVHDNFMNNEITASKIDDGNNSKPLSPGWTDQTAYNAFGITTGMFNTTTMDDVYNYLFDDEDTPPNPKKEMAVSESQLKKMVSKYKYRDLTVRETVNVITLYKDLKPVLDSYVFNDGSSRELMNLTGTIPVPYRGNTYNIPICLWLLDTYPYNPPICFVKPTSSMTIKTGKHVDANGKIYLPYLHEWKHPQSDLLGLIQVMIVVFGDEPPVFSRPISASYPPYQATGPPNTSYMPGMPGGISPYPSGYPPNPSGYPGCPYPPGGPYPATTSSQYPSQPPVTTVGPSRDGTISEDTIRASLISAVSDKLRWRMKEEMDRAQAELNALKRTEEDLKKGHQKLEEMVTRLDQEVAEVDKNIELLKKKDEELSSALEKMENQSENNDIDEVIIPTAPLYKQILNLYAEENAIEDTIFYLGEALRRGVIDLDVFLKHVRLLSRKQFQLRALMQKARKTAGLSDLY
# B1: binding domain-wild type p6gag construct (HIV1 p6 peptide of the HIV1.NL43 strain GAG protein in pGBT.Q) (other)
# chain: LQSRPEPTAPPEESFRFGEETTTPSQKQEPIDKELYPLASLRSLFGSDPSSQ
# B2: binding domain-mutant p6gag construct p6(P10L) (other)
# chain: B1 chain with P10L
# notes: The mutation number counts on p6gag
# B3: binding domain-mutant p6gag construct p6(A9R) (other)
# chain: B1 chain with A9R
# notes: as for B2
# B4: binding domain-mutant p6gag construct p6(P7L) (other)
# chain: B1 chain with P7L
# notes: as for B2
# Columns and labels:
# [1] = target: T1, activation domain-Tsg101 construct …; experiment: cell-based or functional assay
# [2] = target: T1, activation domain-Tsg101 construct …; experiment: yeast two-hybrid, filter lift β-Gal assay
Binder,β-galactosidase activity in the two-hybrid liquid culture assay [1],binding result [2]
B1,> 300 fold over background,
B2,,no binding
B3,,no binding
B4,,no binding
